This experiment has as its target T1, recombinant monomeric CD123 ectodomain (ECD) with an affinity tag on the C-terminus (UniProt P26951 19-305).
T1 construct: extracellular domain; also called CD123 ECD; extracellular domain of CD123
T1 sequence (looked up): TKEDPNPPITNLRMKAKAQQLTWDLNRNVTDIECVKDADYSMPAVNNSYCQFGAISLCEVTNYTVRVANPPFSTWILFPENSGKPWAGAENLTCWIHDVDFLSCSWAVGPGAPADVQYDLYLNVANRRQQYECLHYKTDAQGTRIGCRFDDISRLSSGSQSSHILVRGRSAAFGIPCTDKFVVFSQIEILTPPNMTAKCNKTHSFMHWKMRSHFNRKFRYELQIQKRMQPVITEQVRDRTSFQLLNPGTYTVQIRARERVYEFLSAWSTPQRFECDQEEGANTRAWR
Kind of experiment: SPR (Biacore T200), bispecific captured by anti-human Fc F(ab')2, CD123 ECD 3-48 nM as analyte, 25 °C, 1:1 model.

1 molecule from patent publication US20260234254A1 (APTEVO RESEARCH AND DEVELOPMENT, published 2026) can be followed below.

Experimental: SPR binding studies of bispecific molecules to recombinant monomeric CD123 ectodomain (ECD) were conducted at 25° C. in HBS-EP+ buffer. […] The bispecific molecules at 200 nM in HBS-EP+ buffer were captured by the immobilized anti-Fc F(ab′)2 fragment at a flow rate of 30 μL/min for 120 sec to reach a stable 2000 RU response. […] Optimal regeneration was achieved by one injection of 10 mM glycine (pH 1.7) at a flow rate of 30 μL/min for 15 sec followed by one injection of 50 mM NaOH at 30 μL/min for 15 sec. A two minute stabilization with HBS-EP+ buffer was completed before the subsequent run.
Sensorgrams obtained from kinetic SPR measurements were analyzed by the double subtraction method. The signal from the reference flow cell was subtracted from the analyte binding response obtained from flow cells with immobilized or captured ligands. Buffer reference responses were then averaged from multiple injections. […] All sensorgrams were fitted using a simple one-to-one binding model.

B1: OMT1 VHVL x TSC456 scFv-Fc-scFv TRI129 (bispecific antibody)
chain: EVQLLESGGGLVQPGGSLRLSCAASGFTFSSYGMSWVRQAPGKGLEGVSAISGSGGSTYYADSVKGRFTISRDNSKNTLYLQMNSLRAEDTAVYYCAKEKLRYFDWLSDAFDIWGQGTMVTVSSGGGGSGGGGSGGGGSGGGGSDIVMTQSPDSLAVSLGERATINCKSSHSVLYSSNNKNYLAWYQQKPGQPPKLLIYWASTRESGVPDRFSGSGSGTDFTLTISSLQAEDVAVYYCQQYYSTPPTTFGGGTKVEIKSSSEPKSSDKTHTCPPCPAPEAAGAPSVFLFPPKPKDTLMISRTPEVTCVVVDVSHEDPEVKFNWYVDGVEVHNAKTKPREEQYNSTYRVVSVLTVLHQDWLNGKEYKCAVSNKALPAPIEKTISKAKGQPREPQVYTLPPSRDELTKNQVSLTCLVKGFYPSDIAVEWESNGQPENNYKTTPPVLDSDGSFFLYSKLTVDKSRWQQGNVFSCSVMHEALHNHYTQKSLSLSPGSGGGGSGGGGSGGGGSPSQVQLVQSGPEVKKPGSSVKVSCKASGYTFSRSTMHWVRQAPGQGLEWIGYINPSSAYTNYNQKFKDRVTITADKSTSTAYMELSSLRSEDTAVYYCARPQVHYDYNGFPYWGQGTLVTVSSGGGGSGGGGSGGGGSGGGGSDIQMTQSPSTLSASVGDRVTMTCSASSSVSYMNWYQQKPGKAPKRWIYDSSKLASGVPSRFSGSGSGTDYTLTISSLQPDDFATYYCQQWSRNPPTFGGGTKVEIKRS
notes: Single-chain scFv-Fc-scFv, anti-CD123 (OMT1, VH-VL) x anti-CD3ε (TSC456)
Regarding B1, the Kd was found to be 11.4 nM, the koff was 0.00205 s⁻¹ and the kon came to 179000 M⁻¹ s⁻¹.
